# From patent US20200199241A1 (Chugai, published 2020)
# T1: human FcγRIIa type R (human, UniProt P12318 36-217)
# T1 construct: also called FcγRIIaR; FcγRIIa(R)
# T1 chain: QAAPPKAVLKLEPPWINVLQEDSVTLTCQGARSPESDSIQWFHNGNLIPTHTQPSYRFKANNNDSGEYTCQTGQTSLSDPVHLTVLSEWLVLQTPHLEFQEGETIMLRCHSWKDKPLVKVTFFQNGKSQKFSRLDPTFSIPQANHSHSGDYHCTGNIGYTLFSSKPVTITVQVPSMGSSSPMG
# T2: human FcγRIIb (human, UniProt P31994 43-217, limits assumed)
# T2 construct: also called FcγIIB
# T2 sequence: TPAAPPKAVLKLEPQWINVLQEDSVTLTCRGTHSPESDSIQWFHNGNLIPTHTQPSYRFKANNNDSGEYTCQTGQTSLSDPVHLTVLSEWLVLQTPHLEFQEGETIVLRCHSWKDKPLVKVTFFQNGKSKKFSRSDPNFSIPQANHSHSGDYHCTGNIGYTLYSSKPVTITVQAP
# T3: human FcγRIIa type H (human, UniProt P12318 36-217)
# T3 construct: also called FcγRIIaH; FcγRIIa(H)
# T3 sequence: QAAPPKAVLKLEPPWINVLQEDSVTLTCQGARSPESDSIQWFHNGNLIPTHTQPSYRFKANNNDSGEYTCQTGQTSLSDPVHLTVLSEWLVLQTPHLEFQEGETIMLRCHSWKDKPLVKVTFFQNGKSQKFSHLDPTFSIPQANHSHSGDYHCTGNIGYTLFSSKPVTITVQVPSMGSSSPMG
# T4: FcγRIIa type R (human, UniProt P12318 36-217)
# T4 construct: also called FcγRIIaR; FcgRIIaR
# T4 chain: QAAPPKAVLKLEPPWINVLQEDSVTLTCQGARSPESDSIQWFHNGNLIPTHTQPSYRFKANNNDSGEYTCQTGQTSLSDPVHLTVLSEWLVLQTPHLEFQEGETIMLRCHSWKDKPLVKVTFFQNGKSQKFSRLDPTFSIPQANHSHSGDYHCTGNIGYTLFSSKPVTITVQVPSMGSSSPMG
# T5: FcγRIIa type H (human, UniProt P12318 36-217)
# T5 construct: also called FcγRIIaH; FcγRIIH
# T5 sequence: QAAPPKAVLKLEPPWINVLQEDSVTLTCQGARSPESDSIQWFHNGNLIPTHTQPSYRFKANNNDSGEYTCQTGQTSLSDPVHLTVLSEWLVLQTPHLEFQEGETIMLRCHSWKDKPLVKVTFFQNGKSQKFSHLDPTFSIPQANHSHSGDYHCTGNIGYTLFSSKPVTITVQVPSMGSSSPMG
# T6: FcγRIIb (human, UniProt P31994 43-217, limits assumed)
# T6 construct: also called FcgRIIb; FcγIIB
# T6 sequence: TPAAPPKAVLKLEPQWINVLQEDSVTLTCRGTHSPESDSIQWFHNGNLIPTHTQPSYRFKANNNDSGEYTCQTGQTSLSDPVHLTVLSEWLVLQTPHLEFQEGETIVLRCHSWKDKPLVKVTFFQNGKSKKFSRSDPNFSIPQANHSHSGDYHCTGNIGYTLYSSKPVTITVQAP
# What was measured:
# human FcγRIIa type R = molecular target: T1, human FcγRIIa type R; experiment: SPR (Biacore), binding amount relative to IL6R-BF648/IL6R-L = 100
# human FcγRIa = molecular target: T7, human FcγRIa (human, UniProt P12314 16-292, limits assumed); experiment: as above
# T7 construct: also called CD64
# T7 sequence (P12314 16-292 limits assumed): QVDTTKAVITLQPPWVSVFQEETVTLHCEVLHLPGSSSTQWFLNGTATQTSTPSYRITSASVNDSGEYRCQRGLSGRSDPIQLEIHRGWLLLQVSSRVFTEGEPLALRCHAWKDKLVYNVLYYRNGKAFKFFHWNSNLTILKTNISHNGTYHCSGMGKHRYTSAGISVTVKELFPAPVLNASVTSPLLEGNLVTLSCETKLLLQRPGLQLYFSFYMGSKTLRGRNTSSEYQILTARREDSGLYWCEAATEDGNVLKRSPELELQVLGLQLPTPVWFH
# human FcγRIIIa type V = molecular target: T8, human FcγRIIIa type V (human, UniProt P08637 17-208, limits assumed); experiment: as above
# T8 construct: also called FcγRIIIaV; FcγRIIIa(V)
# T8 sequence (P08637 other isoform, or with tags, fused parts or gaps limits assumed): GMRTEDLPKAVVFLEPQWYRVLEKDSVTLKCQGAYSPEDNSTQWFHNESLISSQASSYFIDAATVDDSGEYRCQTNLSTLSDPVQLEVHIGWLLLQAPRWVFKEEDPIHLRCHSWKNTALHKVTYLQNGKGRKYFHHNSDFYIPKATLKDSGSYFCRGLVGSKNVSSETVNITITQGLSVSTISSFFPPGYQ
# human FcγRIIb = molecular target: T2, human FcγRIIb; experiment: as above
# human FcγRIIa type H = molecular target: T3, human FcγRIIa type H; experiment: as above
# FcγRIIa type R = molecular target: T4, FcγRIIa type R; experiment: SPR (Biacore), FcγR over captured antibody
# FcγRIIIa type V = molecular target: T9, FcγRIIIa type V (human, UniProt P08637 17-208, limits assumed); experiment: SPR (Biacore), FcγR over captured antibody
# T9 construct: also called FcγRIIIaV; FcgRIIIaV
# T9 sequence (P08637 other isoform, or with tags, fused parts or gaps limits assumed): as above
# FcγRIIa type H = molecular target: T5, FcγRIIa type H; experiment: SPR (Biacore), FcγR over captured antibody
# FcγRIa = molecular target: T10, FcγRIa (human, UniProt P12314 16-292, limits assumed); experiment: SPR (Biacore), FcγR over captured antibody
# T10 construct: also called FcgRIa; CD64
# T10 sequence (P12314 16-292 limits assumed): as the sequence (P12314 16-292 limits assumed) above
# FcγRIIb = molecular target: T6, FcγRIIb; experiment: SPR (Biacore), FcγR over captured antibody
relative binding (human FcγRIIa type R),relative binding (human FcγRIa),relative binding (human FcγRIIIa type V),relative binding (human FcγRIIb),relative binding (human FcγRIIa type H),Kd (FcγRIIa type R),Kd (FcγRIIIa type V),Kd (FcγRIIa type H),Kd (FcγRIa),Kd (FcγRIIb),Binder
155,118,157,113,135,–,–,–,–,–,"IL6R-BP121/IL6R-L (antibody, human IgG1, Alteration introduced into IL6R-B3; also called P238D/K326Q) heavy: QVQLQESGPGLVKPSETLSLTCAVSGHSISHDHAWSWVRQPPGEGLEWIGFISYSGITNYNPSLQGRVTISRDNSKNTLYLQMNSLRAEDTAVYYCARSLARTTAMDYWGEGTLVTVSSASTKGPSVFPLAPSSKSTSGGTAALGCLVKDYFPEPVTVSWNSGALTSGVHTFPAVLQSSGLYSLSSVVTVPSSSLGTQTYICNVNHKPSNTKVDKKVEPKSCDKTHTCPPCPAPELLGGDSVFLFPPKPKDTLMISRTPEVTCVVVDVSHEDPEVKFNWYVDGVEVHNAKTKPREEQYNSTYRVVSVLTVLHQDWLNGKEYKCKVSNQALPAPIEKTISKAKGQPREPQVYTLPPSRDELTKNQVSLTCLVKGFYPSDIAVEWESNGQPENNYKTTPPVLDSDGSFFLYSKLTVDKSRWQQGNVFSCSVMHEALHNHYTQESLSLSP light: DIQMTQSPSSLSASVGDRVTITCRASQDISSYLNWYQQKPGKAPKLLIYYTSRLHSGVPSRFSGSGSGTDFTFTISSLQPEDIATYYCQQGNTLPYTFGQGTKVEIK"
–,–,–,–,–,9.2 µM,67 µM,41 µM,0.0041 µM,0.8 µM,"IL6R-BP117/IL6R-L (antibody, human IgG1, IgG1; Fc variant of IL6R-B3; copies: 2 + 2) heavy: QVQLQESGPGLVKPSETLSLTCAVSGHSISHDHAWSWVRQPPGEGLEWIGFISYSGITNYNPSLQGRVTISRDNSKNTLYLQMNSLRAEDTAVYYCARSLARTTAMDYWGEGTLVTVSSASTKGPSVFPLAPSSKSTSGGTAALGCLVKDYFPEPVTVSWNSGALTSGVHTFPAVLQSSGLYSLSSVVTVPSSSLGTQTYICNVNHKPSNTKVDKKVEPKSCDKTHTCPPCPAPELLGGDSVFLFPPKPKDTLMISRTPEVTCVVVDVSHEDPEVKFNWYVDGVEVHNAKTKPREEQYNSTYRVVSVLTVLHQDWLNGKEYKCKVSNDALPAPIEKTISKAKGQPREPQVYTLPPSRDELTKNQVSLTCLVKGFYPSDIAVEWESNGQPENNYKTTPPVLDSDGSFFLYSKLTVDKSRWQQGNVFSCSVMHEALHNHYTQESLSLSP light: DIQMTQSPSSLSASVGDRVTITCRASQDISSYLNWYQQKPGKAPKLLIYYTSRLHSGVPSRFSGSGSGTDFTFTISSLQPEDIATYYCQQGNTLPYTFGQGTKVEIK"
81,60,97,103,93,–,–,–,–,–,"IL6R-BP912/IL6R-L (antibody, human IgG1, Alteration introduced into IL6R-B3; also called P238D/A330R) heavy: QVQLQESGPGLVKPSETLSLTCAVSGHSISHDHAWSWVRQPPGEGLEWIGFISYSGITNYNPSLQGRVTISRDNSKNTLYLQMNSLRAEDTAVYYCARSLARTTAMDYWGEGTLVTVSSASTKGPSVFPLAPSSKSTSGGTAALGCLVKDYFPEPVTVSWNSGALTSGVHTFPAVLQSSGLYSLSSVVTVPSSSLGTQTYICNVNHKPSNTKVDKKVEPKSCDKTHTCPPCPAPELLGGDSVFLFPPKPKDTLMISRTPEVTCVVVDVSHEDPEVKFNWYVDGVEVHNAKTKPREEQYNSTYRVVSVLTVLHQDWLNGKEYKCKVSNKALPRPIEKTISKAKGQPREPQVYTLPPSRDELTKNQVSLTCLVKGFYPSDIAVEWESNGQPENNYKTTPPVLDSDGSFFLYSKLTVDKSRWQQGNVFSCSVMHEALHNHYTQESLSLSP light: DIQMTQSPSSLSASVGDRVTITCRASQDISSYLNWYQQKPGKAPKLLIYYTSRLHSGVPSRFSGSGSGTDFTFTISSLQPEDIATYYCQQGNTLPYTFGQGTKVEIK"
–,–,–,–,–,12 µM,63 µM,52 µM,0.0015 µM,0.93 µM,"IL6R-BP107/IL6R-L (antibody, human IgG1, IgG1; Fc variant of IL6R-B3; copies: 2 + 2) heavy: QVQLQESGPGLVKPSETLSLTCAVSGHSISHDHAWSWVRQPPGEGLEWIGFISYSGITNYNPSLQGRVTISRDNSKNTLYLQMNSLRAEDTAVYYCARSLARTTAMDYWGEGTLVTVSSASTKGPSVFPLAPSSKSTSGGTAALGCLVKDYFPEPVTVSWNSGALTSGVHTFPAVLQSSGLYSLSSVVTVPSSSLGTQTYICNVNHKPSNTKVDKKVEPKSCDKTHTCPPCPAPELLGGDSVFLFPPKPKDTLMISRTPEVTCVVVDVSEEDPEVKFNWYVDGVEVHNAKTKPREEQYNSTYRVVSVLTVLHQDWLNGKEYKCKVSNKALPAPIEKTISKAKGQPREPQVYTLPPSRDELTKNQVSLTCLVKGFYPSDIAVEWESNGQPENNYKTTPPVLDSDGSFFLYSKLTVDKSRWQQGNVFSCSVMHEALHNHYTQESLSLSP light: DIQMTQSPSSLSASVGDRVTITCRASQDISSYLNWYQQKPGKAPKLLIYYTSRLHSGVPSRFSGSGSGTDFTFTISSLQPEDIATYYCQQGNTLPYTFGQGTKVEIK"
–,–,–,–,–,15 µM,78 µM,45 µM,0.0082 µM,1.1 µM,"IL6R-BP078/IL6R-L (antibody, human IgG1, IgG1; Fc variant of IL6R-B3; copies: 2 + 2) heavy: QVQLQESGPGLVKPSETLSLTCAVSGHSISHDHAWSWVRQPPGEGLEWIGFISYSGITNYNPSLQGRVTISRDNSKNTLYLQMNSLRAEDTAVYYCARSLARTTAMDYWGEGTLVTVSSASTKGPSVFPLAPSSKSTSGGTAALGCLVKDYFPEPVTVSWNSGALTSGVHTFPAVLQSSGLYSLSSVVTVPSSSLGTQTYICNVNHKPSNTKVDKKVEPKSCDKTHTCPPCPAPELLGGDSVFLFPPKPKDTLMISRTPEVTCVVVDVSHEDPEVKFNWYVDGVEVHNAKTKPREEQYNSTYRVVSVLTVLHQDWLNGKEYKCKVSNKALPMPIEKTISKAKGQPREPQVYTLPPSRDELTKNQVSLTCLVKGFYPSDIAVEWESNGQPENNYKTTPPVLDSDGSFFLYSKLTVDKSRWQQGNVFSCSVMHEALHNHYTQESLSLSP light: DIQMTQSPSSLSASVGDRVTITCRASQDISSYLNWYQQKPGKAPKLLIYYTSRLHSGVPSRFSGSGSGTDFTFTISSLQPEDIATYYCQQGNTLPYTFGQGTKVEIK"
–,–,–,–,–,3.5 µM,69 µM,35 µM,0.0065 µM,0.32 µM,"IL6R-BP112/IL6R-L (antibody, human IgG1, IgG1; Fc variant of IL6R-B3; copies: 2 + 2) heavy: QVQLQESGPGLVKPSETLSLTCAVSGHSISHDHAWSWVRQPPGEGLEWIGFISYSGITNYNPSLQGRVTISRDNSKNTLYLQMNSLRAEDTAVYYCARSLARTTAMDYWGEGTLVTVSSASTKGPSVFPLAPSSKSTSGGTAALGCLVKDYFPEPVTVSWNSGALTSGVHTFPAVLQSSGLYSLSSVVTVPSSSLGTQTYICNVNHKPSNTKVDKKVEPKSCDKTHTCPPCPAPELLGGDSVFLFPPKPKDTLMISRTPEVTCVVVDVSHEDGEVKFNWYVDGVEVHNAKTKPREEQYNSTYRVVSVLTVLHQDWLNGKEYKCKVSNKALPAPIEKTISKAKGQPREPQVYTLPPSRDELTKNQVSLTCLVKGFYPSDIAVEWESNGQPENNYKTTPPVLDSDGSFFLYSKLTVDKSRWQQGNVFSCSVMHEALHNHYTQESLSLSP light: DIQMTQSPSSLSASVGDRVTITCRASQDISSYLNWYQQKPGKAPKLLIYYTSRLHSGVPSRFSGSGSGTDFTFTISSLQPEDIATYYCQQGNTLPYTFGQGTKVEIK"
–,–,–,–,–,11 µM,55 µM,36 µM,0.004 µM,0.93 µM,"IL6R-BP106/IL6R-L (antibody, human IgG1, IgG1; Fc variant of IL6R-B3; copies: 2 + 2) heavy: QVQLQESGPGLVKPSETLSLTCAVSGHSISHDHAWSWVRQPPGEGLEWIGFISYSGITNYNPSLQGRVTISRDNSKNTLYLQMNSLRAEDTAVYYCARSLARTTAMDYWGEGTLVTVSSASTKGPSVFPLAPSSKSTSGGTAALGCLVKDYFPEPVTVSWNSGALTSGVHTFPAVLQSSGLYSLSSVVTVPSSSLGTQTYICNVNHKPSNTKVDKKVEPKSCDKTHTCPPCPAPELLGGDSVFLFPPKPKDTLMISRTPEVTCVVVDVSDEDPEVKFNWYVDGVEVHNAKTKPREEQYNSTYRVVSVLTVLHQDWLNGKEYKCKVSNKALPAPIEKTISKAKGQPREPQVYTLPPSRDELTKNQVSLTCLVKGFYPSDIAVEWESNGQPENNYKTTPPVLDSDGSFFLYSKLTVDKSRWQQGNVFSCSVMHEALHNHYTQESLSLSP light: DIQMTQSPSSLSASVGDRVTITCRASQDISSYLNWYQQKPGKAPKLLIYYTSRLHSGVPSRFSGSGSGTDFTFTISSLQPEDIATYYCQQGNTLPYTFGQGTKVEIK"
